Where a chain is given by its changes, count along the chain named.
B1: HER2-binding D domain SEQ ID NO: 828 (designed binder)
chain: MGSWWEFHVRLRAIEYRLEALGGSEAELAAFEKEIAAFESELQAYKGKGNPEVEQLRLIAANIRHLLQAYRHN
B2: HER2-binding D domain SEQ ID NO: 831 (designed binder)
chain: B1 chain with H8Q, R12A, E19K, Q55N, L58Q, I59L, N62H, H65S, L66V
B3: HER2-binding D domain SEQ ID NO: 829 (designed binder)
chain: B1 chain with R12K, E19L, Q55D, L58Y, H65Q
B4: HER2-binding D domain SEQ ID NO: 832 (designed binder)
chain: B1 chain with H8Q, R12S, E19T, Q55E, L58Q, I59K, N62R, H65S
B5: HER2-binding D domain SEQ ID NO: 835 (designed binder)
chain: MGSWYEFDIRLEAIKYRLSALGGSEAELAAFEKEIAAFESELQAYKGKGNPEVEYLRKKAAVIRSMLQAYRHN
B6: HER2-binding D domain SEQ ID NO: 836 (designed binder)
chain: B5 chain with Y5W, D8R, K15W, S19H, Y55D, K58I, K59F, V62N, M66K
B7: HER2-binding D domain SEQ ID NO: 820 (designed binder)
chain: MGSWFEFEIRLRAIEYRLSALGGSEAELAAFEKEIAAFESELQAYKGKGNPEVEKLRELAAEIRYALQAYRHN
B8: HER2-binding D domain SEQ ID NO: 822 (designed binder)
chain: B7 chain with F5W, E8K, I9V, K55E, E58V, E62S, Y65I, A66H
B9: HER2-binding D domain SEQ ID NO: 840 (designed binder)
chain: B7 chain with F5W, E8H, E15K, S19Y, K55D, E58I, Y65A, A66Q
B10: HER2-binding D domain SEQ ID NO: 821 (designed binder)
chain: B7 chain with E8K, R12Y, E15Q, K55E, E58N, Y65H, A66S
B11: HER2-binding D domain SEQ ID NO: 833 (designed binder)
chain: MGSWWEFNIRLHAIDYRLKALGGSEAELAAFEKEIAAFESELQAYKGKGNPEVELLREKAAQIRAQLQAYRHN
notes: also called eb09
B12: HER2-binding D domain SEQ ID NO: 837 (designed binder)
chain: B11 chain with I9V, H12Q, D15K, K19S, L55D, E58K, K59T, Q62H, A65W
B13: HER2-binding D domain SEQ ID NO: 838 (designed binder)
chain: B11 chain with I9V, H12S, D15R, K19L, L55D, E58A, K59S, Q66M
B14: HER2-binding D domain SEQ ID NO: 834 (designed binder)
chain: B11 chain with N8R, I9V, H12E, L55Y, E58M, Q62T, Q66I
notes: also called eb06
B15: HER2-binding D domain SEQ ID NO: 825 (designed binder)
chain: MGSWVEFWIRLNAIKYRLLALGGSEAELAAFEKEIAAFESELQAYKGKGNPEVEKLRQDAADIRELLQAYRHN
B16: HER2-binding D domain SEQ ID NO: 826 (designed binder)
chain: B15 chain with V5T, I9W, N12S, K15V, L19N, K55E, Q58D, D59M, E65S
B17: HER2-binding D domain SEQ ID NO: 839 (designed binder)
chain: B15 chain with V5W, W8N, I9M, N12S, L19Y, K55I, Q58R, D59L, L66R
notes: also called eb10
B18: HER2-binding D domain SEQ ID NO: 827 (designed binder)
chain: B15 chain with V5W, W8Y, I9L, N12R, K15S, L19Q, K55G, D62E, E65K
B19: HER2-binding D domain SEQ ID NO: 823 (designed binder)
chain: MGSWSEFWFRLHAILYRLQALGGSEAELAAFEKEIAAFESELQAYKGKGNPEVETLRDAAAEIRVALQAYRHN
B20: HER2-binding D domain SEQ ID NO: 824 (designed binder)
chain: B19 chain with S5I, F9V, H12N, Q19Y, T55A, A59S, V65R, A66W

molecular target: T1, HER2 (human, UniProt P04626 23-652); test: ELISA, format not described; set-up: unit not given here
T1 construct: The ELISA is not described; also called ERBB2; CD340

| Binder | ELISA_avg |
| --- | --- |
| B1 | 5.48 |
| B2 | 6.33 |
| B3 | 4.56 |
| B4 | 9.61 |
| B5 | 5.35 |
| B6 | 8.04 |
| B7 | 7.75 |
| B8 | 10.1 |
| B9 | 14.8 |
| B10 | 13.1 |
| B11 | 9.75 |
| B12 | 5.23 |
| B13 | 6.73 |
| B14 | 6.82 |
| B15 | 10.6 |
| B16 | 5.76 |
| B17 | 3.08 |
| B18 | 5.1 |
| B19 | 14.8 |
| B20 | 3.91 |
